Changes are numbered by the printed parent chain. Values belong to the binder of their own block, whether it stands above or below them.
Tests used:
[1] = molecular target: T1, Human AXLΔcyto-IG (human AXL lacking the cytoplasmic domain) on transfected BA/F3 cells (human, UniProt P30530 26-472, limits assumed); experiment: flow cytometry on Human AXLΔcyto-IG transfected BA/F3 cells, anti-mouse IgG-APC secondary
T1 construct: GFP is co-expressed from the vector; also called huAXLΔcyto-IG; human AXL transfected BA/F3 cells
T1 sequence: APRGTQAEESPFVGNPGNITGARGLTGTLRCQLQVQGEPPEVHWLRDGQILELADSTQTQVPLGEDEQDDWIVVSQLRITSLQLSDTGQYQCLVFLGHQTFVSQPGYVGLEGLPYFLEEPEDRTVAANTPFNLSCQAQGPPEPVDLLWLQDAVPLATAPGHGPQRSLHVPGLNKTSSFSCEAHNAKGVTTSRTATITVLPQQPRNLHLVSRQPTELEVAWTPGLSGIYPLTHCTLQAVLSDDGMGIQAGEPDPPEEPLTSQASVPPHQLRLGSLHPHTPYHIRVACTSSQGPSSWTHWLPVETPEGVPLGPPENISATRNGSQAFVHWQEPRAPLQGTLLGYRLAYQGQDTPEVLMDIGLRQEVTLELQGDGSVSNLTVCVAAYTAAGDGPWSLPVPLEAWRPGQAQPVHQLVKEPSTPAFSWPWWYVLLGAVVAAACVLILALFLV
Experimental: (§1) FIG. 1A depicts surface staining on BA/F3 cells transfected with human AXL, and FIG. 1B depicts surface staining on BA/F3 cells transfected with mGypa (mouse Glycophorin A) as a control. BA/F3 cells (IL-3 dependent mouse pro-B cell line) were used to eliminate the possibility of human proteins being expressed. The transfection efficiency was measured by GFP, which is used to visualize/identify cells that have been transfected and are expressing the vector. GFP (or FITC) on the x-axis identifies cells that are positive for GFP (i.e., cells that have been transfected). […] Cells were then washed and stained with a secondary antibody (anti-mouse IgG-APC).
(§2) In a first experiment, exemplary anti-human AXL antibodies were assessed on an IL-3 dependent murine pro B cell line (BA/F3, RIKEN CELL BANK, Cat #RCB4476), transfected with Human AXLΔcyto-IG (Ba/F3 cells were retrovirally transduced with human AXL lacking the cytoplasmic domain and GFP). […] Cells were then washed twice with FACS wash buffer and stained with anti-mouse IgG-APC secondary antibody for 15 minutes. Cells were washed with FACS buffer and analyzed on a BD Canto II and corresponding data was analyzed by FlowJo.

[2] = molecular target: T2, native human AXL on non-transfected human cell lines (A-431, A-549, HeLa, MDA-MB-231, NCI-H1299) (human, UniProt P30530 26-894); experiment: flow cytometry, PE conjugate on A-431, A-549, HeLa, MDA-MB-231 and NCI-H1299 cells
T2 construct: Endogenous AXL of carcinoma cell lines; also called human AXL receptor tyrosine kinase; AXL receptor
T2 sequence: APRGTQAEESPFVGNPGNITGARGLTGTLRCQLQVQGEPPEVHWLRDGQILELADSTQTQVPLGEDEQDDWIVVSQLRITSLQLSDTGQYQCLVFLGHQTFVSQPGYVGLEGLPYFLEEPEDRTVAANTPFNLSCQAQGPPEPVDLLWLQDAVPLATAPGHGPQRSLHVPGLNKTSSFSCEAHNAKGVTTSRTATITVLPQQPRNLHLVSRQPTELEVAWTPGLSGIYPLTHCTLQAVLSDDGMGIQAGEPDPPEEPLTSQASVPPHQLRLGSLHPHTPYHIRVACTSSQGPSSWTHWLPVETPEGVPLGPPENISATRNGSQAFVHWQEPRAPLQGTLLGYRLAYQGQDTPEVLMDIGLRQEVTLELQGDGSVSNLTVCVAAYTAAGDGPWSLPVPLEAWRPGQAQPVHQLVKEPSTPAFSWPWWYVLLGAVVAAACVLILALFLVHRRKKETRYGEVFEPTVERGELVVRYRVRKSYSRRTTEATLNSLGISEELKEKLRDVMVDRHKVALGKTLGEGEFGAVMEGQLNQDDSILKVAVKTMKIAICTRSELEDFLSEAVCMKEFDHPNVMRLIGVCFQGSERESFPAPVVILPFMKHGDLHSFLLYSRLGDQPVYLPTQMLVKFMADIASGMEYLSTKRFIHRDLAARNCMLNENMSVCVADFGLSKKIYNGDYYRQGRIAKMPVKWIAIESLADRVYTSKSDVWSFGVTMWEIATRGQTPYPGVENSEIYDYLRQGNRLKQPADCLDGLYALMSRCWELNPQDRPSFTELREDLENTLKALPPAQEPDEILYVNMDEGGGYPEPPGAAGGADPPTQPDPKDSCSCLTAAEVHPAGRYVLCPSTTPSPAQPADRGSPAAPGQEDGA
Text: In contrast, the cell lines used for FIGS. 2F-2G (TH-29 and Jurkat, respectively) are known to be negative for human AXL and were thus used as negative controls.
Once cells reached 80% confluency, cells were detached from the flask using 0.25% Trypsin-0.1% EDTA and suspended in cell staining buffer. […] Cells were washed with FACS buffer and analyzed on a BD Canto II flow cytometer.

[3] = molecular target: T3, hAXL recombinant protein (Sino Biological, Catalog #10279-H08H) (human, UniProt P30530 26-449); experiment: pre-incubation of antibody with soluble recombinant human AXL, then flow cytometry on human AXL-transfected BA/F3 cells (FIG. 3B)
T3 construct: Bought soluble protein; also called human AXL recombinant protein; recombinant human AXL protein
T3 sequence: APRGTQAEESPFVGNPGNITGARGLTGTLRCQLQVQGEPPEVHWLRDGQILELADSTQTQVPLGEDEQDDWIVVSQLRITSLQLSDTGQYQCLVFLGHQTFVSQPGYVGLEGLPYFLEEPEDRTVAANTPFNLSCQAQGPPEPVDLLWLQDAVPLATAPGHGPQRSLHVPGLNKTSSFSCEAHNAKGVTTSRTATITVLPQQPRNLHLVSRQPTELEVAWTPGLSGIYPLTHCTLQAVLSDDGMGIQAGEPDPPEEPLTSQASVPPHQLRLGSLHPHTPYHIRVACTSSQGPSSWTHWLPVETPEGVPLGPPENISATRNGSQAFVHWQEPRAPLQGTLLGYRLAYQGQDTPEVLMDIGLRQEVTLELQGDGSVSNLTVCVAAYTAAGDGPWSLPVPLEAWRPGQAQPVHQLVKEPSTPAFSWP
Experimental: (§3) In each case, cell populations of interest were selected by setting and displaying gates (for visual comparison purposes) based on the corresponding isotype control.
(§4) PE conjugated mIgG1 and mIgG2a, or PU-IgG1 were used as controls. After incubation, 2×10⁶/100 μL of huAXLΔcyto-IG transfected BA/F3 cells were added to each tube, and cells were acquired on a BD Canto II and corresponding data was analyzed by FlowJo.

[4] = molecular target: mGypa (mouse Glycophorin A) on transfected BA/F3 cells (mouse, UniProt P14220 1-168); experiment: flow cytometry on mGypa-transfected BA/F3 cells, anti-mouse IgG-APC secondary
[5] = molecular target: T1, Human AXLΔcyto-IG (human AXL lacking …); experiment: flow cytometry on human AXL-transfected BA/F3 cells, anti-mouse IgG-APC secondary
Experimental: as §1, §2

[6] = molecular target: T3, hAXL recombinant protein (Sino …); experiment: pre-incubation of antibody with soluble recombinant human AXL, then flow cytometry on human AXL-transfected BA/F3 cells (FIG. 3D)
Experimental: as §3, §4

binding result [1]: binds
binding result [2]: binds
binding result [3]: binds
B1: AB6 (antibody, V domains shown)
VH: EVNLVESGGGLVQPGGSLKLSCATSGFTFSDYYMYWVRQTPEKRLEWVAYISNGGGSTYYPDTVKGRFTISRDNAKNTLYLQMSRLKSEDTAMYYCARLHFYAMDYWGQGTSVTVSS
VL: DIVMTQSHKFMSTSVGDRVSITCKASQDVSTAVAWYQQKPGQSPKLLIYWASTRHTGVPDRFTGSGSGTDYTLTISSVQAEDLALYYCQQHYNTPFTFGSGTKLEIK
notes: Mouse hybridoma monoclonal; also called antibody 6; PE-AB6
binding result [4]: no binding (tested: 1 ug (printed 'lug'))

B2: AB3 (antibody, V domains shown)
VH: QIQLVQSGPELKKPGETVKISCKASGYTFTNYGMNWVKQAPGKGLKWMGWINTYIGEPTYADDFKGRFAFSLETSASTAYLQINNLKNEDMGTYFCARGTTFYAMDYWGQGTSVTVSS
VL: EIVLTQSPTTMAASPGEKITITCSASSSISSNYLHWYQQKPGFSPKLLIYRTSNLASGVPARFSGSGSGTSYSLTIGTMEAEDVATYYCQQGSSILTFGAGTKLELK
notes: Mouse hybridoma monoclonal; also called antibody 3; PE-AB3
binding result [4]: no binding (tested: 1 ug (printed 'lug'))

binding result [1]: binds
binding result [2]: binds
binding result [3]: binds
B3: AB5 (antibody, V domains shown)
VH: B2 VH with I55T, G92A, T100D, T101R
VL: B2 VL with A61T, L96F, A100S, L106I
notes: Mouse hybridoma monoclonal; also called antibody 5; PE-AB5
binding result [4]: no binding (tested: 1 ug (printed 'lug'))

binding result [5]: binds
binding result [6]: binds
B4: AB1 (antibody, V domains shown)
VH: DVQLQESGPDLVKPSQSLSLTCTVTGYSITSAYSWHWIRQFPGNKLEWMGYIHYSGSTNYNPSLKSRISITRDTSKNQFFLQLNSVTTEDTATYYCARSLWFYAMDYWGQGTSVTVSS
VL: DVQITQSPSYLAASPGETITINCRASKSISKYLAWYQEKPGKTNKLLIYSGSTLQSGIPSRFSGSGSGTDFTLTISSLEPEDFAMYYCQQHNEYPWTFGGGTKLEIK
notes: Mouse hybridoma monoclonal; also called antibody 1; PU-conjugated AB1
binding result [4]: no binding (tested: 1 ug (printed 'lug'))

B5: AB2 (antibody, V domains shown)
VH: B4 VH
VL: DIQMNQSPSSLSASLGDTITITCHASQNINVWLNWYQQKPGNIPKLLIYKASNLHTGVPSRFSGSGSGTGFTLTISSLQPEDIATYYCQQGQSYPLTFGGGTKLEIK
notes: Mouse hybridoma monoclonal; also called antibody 2; PE-AB2
binding result [4]: no binding (tested: 1 ug (printed 'lug'))

binding result [1]: binds
binding result [2]: binds
binding result [3]: binds
B6: AB4 (antibody, V domains shown)
VH: B4 VH with N84S
VL: B4 VL with N22K, Q55H
notes: Mouse hybridoma monoclonal; also called antibody 4; PE-AB4
binding result [4]: no binding (tested: 1 ug (printed 'lug'))

— patent US20260042848A1 (BIOLEGEND, published 2026)
